Laboratory results taken from US20060275822.

Biological target: W-SCAT protein (Venus - caspase 3 substrate site - Venus, expressed from pRSETB/W-SCAT in Escherichia coli)

B1: active caspase 3 (CPP32, MBL) (protein)
chain: SGISLDNSYKMDYPEMGLCIIINNKNFHKSTGMTSRSGTDVDAANLRETFRNLKYEVRNKNDLTREEIVELMRDVSKEDHSKRSSFVCVLLSHGEEGIIFGTNGPVDLKKITNFFRGDRCRSLTGKPKLFIIQACRGTELDCGIETDSGVDDDMACHKIPVEADFLYAYSTAPGYYSWRNSKDGSWFIQSLCAMLKQYADKLEFMHILTRVNRKVATEFESFSFDATFHAKKQIPCIVSMLTKELYFYH
Fluorescent anisotropy (mA) of W-SCAT after 2 hours at 37 C with 1 unit of active caspase 3, measured with Beacon (control without casp3: 225.8): 276 mA
